The supplement of paper PMC6757056
± gives the standard deviation of the averaged measurements.

B1: library; a variant is named by its letters at N, in order (parent)
chain: GCUGUCACCGAGAAACUGUGAAGUAUAUCUUAAACCUGGGCACUUAAAAGAUAUAUGGAGUUAGUAGUGCAACCUGCUCGGUCUGAUGAGUCCNNNNNNGGACGAAACAGC

How the values were obtained:
[1] = variants of: B1; assay: FACS-Seq fitted mean relative fluorescence mCherry/BFP without ligand (log10 relative fluorescence); HEK293T; ligand: cyclic di-GMP (c-di-GMP-II aptamer); higher = higher reporter protein expression; details: ligand present: no
Protocol: (§1)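 Hammerhead (sTRSV) ribozyme switch libraries with a ligand aptamer grafted on stem I and a randomized N4-6 loop II, cloned into the 3' UTR of mCherry and transiently transfected into HEK293T cells; RNA-Seq 72 h post transfection with ligand added 1 h before transfection; RNA read count / plasmid DNA read count normalized to the non-cleaving sTRSVctl (x100), log10; sequences with >100 DNA reads. FACS-Seq: lentiviral library sorted into 6 bins after 48 h ligand, log-normal fit mean of mCherry/BFP scaled to controls. Printed sequences are partial switch sequences.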

[2] = variants of: B1; assay: normalized RNA/DNA level without ligand (relative to sTRSVctl = 100) (log10 (% of sTRSVctl)); HEK293T; ligand: cyclic di-GMP (c-di-GMP-II aptamer); higher = less ribozyme self-cleavage, higher mRNA level; details: reporter: mCherry (pCS4076), ligand present: no
Protocol: as §1

[3] = variants of: B1; assay: FACS-Seq fitted mean relative fluorescence mCherry/BFP with ligand (log10 relative fluorescence); HEK293T; ligand: cyclic di-GMP (c-di-GMP-II aptamer); ligand concentration (+) FACS-Seq: 1 mM; higher = higher reporter protein expression; details: ligand present: yes
Protocol: as §1

[4] = variants of: B1; assay: normalized RNA/DNA level with ligand (relative to sTRSVctl = 100) (log10 (% of sTRSVctl)); HEK293T; ligand: cyclic di-GMP (c-di-GMP-II aptamer); ligand concentration (+) RNA-Seq: 1 mM; higher = less ribozyme self-cleavage, higher mRNA level; details: reporter: mCherry (pCS4076), ligand present: yes
Protocol: as §1

| Variant | FACS-Seq fitted mean (log10) [1] | normalized RNA/DNA level without ligand (log10) [2] | FACS-Seq fitted mean (log10) [3] | normalized RNA/DNA level with ligand (log10) [4] |
| --- | --- | --- | --- | --- |
| GCUGUCACCGAGAAACUGUGAAGUAUAUCUUAAACCUGGGCACUUAAAAGAUAUAUGGAGUUAGUAGUGCAACCUGCUCGGUCUGAUGAGUCCUAAUAGGGACGAAACAGC [UAAUAG] | -0.126 ± 0.087 | 1.667 ± 0.0048 | -0.0799 ± 0.024 | 1.83 ± 0.099 |
| GCUGUCACCGAGAAACUGUGAAGUAUAUCUUAAACCUGGGCACUUAAAAGAUAUAUGGAGUUAGUAGUGCAACCUGCUCGGUCUGAUGAGUCCCAAUCUGGACGAAACAGC [CAAUCU] | -1.02 ± 0.16 | 1.54 ± 0.069 | -0.88 ± 0.038 | 1.71 ± 0.13 |
| GCUGUCACCGAGAAACUGUGAAGUAUAUCUUAAACCUGGGCACUUAAAAGAUAUAUGGAGUUAGUAGUGCAACCUGCUCGGUCUGAUGAGUCCCAAUCAGGACGAAACAGC [CAAUCA] | -0.5458 ± 0.0024 | 1.4 ± 0.11 | -0.364 ± 0.017 | 1.61 ± 0.085 |
| GCUGUCACCGAGAAACUGUGAAGUAUAUCUUAAACCUGGGCACUUAAAAGAUAUAUGGAGUUAGUAGUGCAACCUGCUCGGUCUGAUGAGUCCCAAUCCGGACGAAACAGC [CAAUCC] | -0.487 ± 0.028 | 1.75 ± 0.049 | -0.368 ± 0.016 | 1.87 ± 0.11 |
| GCUGUCACCGAGAAACUGUGAAGUAUAUCUUAAACCUGGGCACUUAAAAGAUAUAUGGAGUUAGUAGUGCAACCUGCUCGGUCUGAUGAGUCCAAAUAAGGACGAAACAGC [AAAUAA] | -0.515 ± 0.032 | 1.45 ± 0.067 | -0.21 ± 0.07 | 1.68 ± 0.12 |
| GCUGUCACCGAGAAACUGUGAAGUAUAUCUUAAACCUGGGCACUUAAAAGAUAUAUGGAGUUAGUAGUGCAACCUGCUCGGUCUGAUGAGUCCAAAUAUGGACGAAACAGC [AAAUAU] | -0.442 ± 0.052 | 1.6004 ± 0.00073 | -0.152 ± 0.097 | 1.78 ± 0.11 |
| GCUGUCACCGAGAAACUGUGAAGUAUAUCUUAAACCUGGGCACUUAAAAGAUAUAUGGAGUUAGUAGUGCAACCUGCUCGGUCUGAUGAGUCCUAAGUUGGACGAAACAGC [UAAGUU] | 0.0182 ± 0.011 | 1.577 ± 0.0025 | 0.229 ± 0.08 | 1.77 ± 0.094 |
| GCUGUCACCGAGAAACUGUGAAGUAUAUCUUAAACCUGGGCACUUAAAAGAUAUAUGGAGUUAGUAGUGCAACCUGCUCGGUCUGAUGAGUCCGAAUAAGGACGAAACAGC [GAAUAA] | -0.287 ± 0.05 | 1.44 ± 0.067 | -0.0182 ± 0.045 | 1.68 ± 0.15 |
| GCUGUCACCGAGAAACUGUGAAGUAUAUCUUAAACCUGGGCACUUAAAAGAUAUAUGGAGUUAGUAGUGCAACCUGCUCGGUCUGAUGAGUCCGAAUAGGGACGAAACAGC [GAAUAG] | -0.662 ± 0.05 | 1.64 ± 0.018 | -0.40149 ± 0.00037 | 1.78 ± 0.15 |
| GCUGUCACCGAGAAACUGUGAAGUAUAUCUUAAACCUGGGCACUUAAAAGAUAUAUGGAGUUAGUAGUGCAACCUGCUCGGUCUGAUGAGUCCCAAUAAGGACGAAACAGC [CAAUAA] | -0.688 ± 0.028 | 1.25 ± 0.083 | -0.398 ± 0.011 | 1.52 ± 0.074 |
| GCUGUCACCGAGAAACUGUGAAGUAUAUCUUAAACCUGGGCACUUAAAAGAUAUAUGGAGUUAGUAGUGCAACCUGCUCGGUCUGAUGAGUCCCAAUAUGGACGAAACAGC [CAAUAU] | -0.659 ± 0.028 | 1.49 ± 0.061 | -0.365 ± 0.019 | 1.67 ± 0.11 |
| GCUGUCACCGAGAAACUGUGAAGUAUAUCUUAAACCUGGGCACUUAAAAGAUAUAUGGAGUUAGUAGUGCAACCUGCUCGGUCUGAUGAGUCCAAAGUUGGACGAAACAGC [AAAGUU] | -0.298 ± 0.1 | 1.59 ± 0.068 | 0.0631 ± 0.068 | 1.77 ± 0.03 |
| GCUGUCACCGAGAAACUGUGAAGUAUAUCUUAAACCUGGGCACUUAAAAGAUAUAUGGAGUUAGUAGUGCAACCUGCUCGGUCUGAUGAGUCCUAAUCGGGACGAAACAGC [UAAUCG] | -0.029 ± 0.037 | 1.7 ± 0.017 | 0.149 ± 0.061 | 1.82 ± 0.17 |
